In US7645449B2, “Sensitizing cells for apoptosis by selectively blocking cytokines” (priority 2003, dated 2010):

Tests used:
[1] = test system: Bcl-xL and Bcl-2 in normal thyrocytes; assay: Immunoblot of Bcl-xL and Bcl-2 in normal thyrocytes cultured with cytokines; format: cell-based, human; details: after 48 hours of culture; IL-4 20 ng/ml, IL-10 40 ng/ml, IFN-γ 1000 IU/ml
Method: Thyroid cell purification and culture. Thyroid tissues from normal, PTC, FTC and UTC were digested for 2 hours with collagenase (1.5 mg/ml) (Gibco BRL, Grand Island, N.Y.) and hyaluronidase (20 μg/ml) (Sigma Chemical Co., St. Louis, Mo.) in DMEM. Thyrocytes were purified from the digested tissues by hematopoietic cell depletion with anti-CD45-coupled beads (Dynal, Wirral Merseyside, U.K.) and 12 hours of flask adherence, which allowed removal of other cells. After additional 12 hours of culture, thyroid cells were allowed to grow in monolayer for the immunocytochemistry or detached with trypsin+EDTA following exposure to cytokines or chemotherapeutic agents for functional and protein analyses. Thyrocytes were cultured in standard DMEM with 10% heat-inactivated FBS (Hyclone Laboratories, Logan, UK) in the presence or absence of human recombinant IL-4 (20 ng/ml), IL-10 (40 ng/ml) or IFN-γ (1000 IU/ml) (uroclone, Paignton, UK) and cisplatin (300 ng/ml), doxorubicin (5 μM) and taxol (5 μM) (Sigma) or TRAIL (Alexis, San Diego, USA). For the IL-4 and IL-10 neutralization, thyroid cancer cells were pretreated, for 48 hours, with anti-human IL-4 and IL-10 neutralizing antibodies (1 μg/ml) (R&D systems, MN, USA).
Protein isolation and Western Blotting. Cell pellets were resuspended in ice-cold NP-40 lysis buffer (50 mM Tris-HCl, pH 7.5, 150 mM NaCl, 1 mM EGTA, 1% NP-40) containing 1 mM PMSF, leupeptin (1 μg/ml), pepstatin (1 μg/ml) and aprotirni (1 μg/ml). Each lysate (30 μg) was fractioned on 12% SDS-polyacrylamide gels and blotted to nitrocellulose (Hybond, Amersham, Little Chalfont Buckinghamshire England, UK). Membrane was blocked for 1 h with nonfat dry milk in TBS containing 0.05% Tween 20 and successively incubated for 2 h with Abs specific to actin (Ab-1, mouse IgM, Calbiochem, Darmstadt, Germany), Bcl-2 (124, mouse IgG1, Upstate Biotechnology Inc.), Bcl-xL (H-5, mouse IgGl, Santa Cniz Biotechnology), IL-4 (3007.11, mouse IgG1, R&D Systems, Inc., Minneapolis, USA), IL-10 (23738.111, mouse IgG2b, R&D Systems), IFN-γ (25718.111, mouse IgG2a, R&D Systems). […]

[2] = test system: freshly isolated normal breast epithelial cells; assay: Bcl-XL expression and chemotherapy-induced apoptosis in normal breast epithelial cells exposed to IL-4; format: cell-based, human
Text: To confirm that IL-4-induced upregulation of Bcl-XL is able to protect epithelial breast cells from apoptosis, freshly isolated normal breast epithelial cells were exposed to IL-4 and analyzed Bcl-XL expression and sensitivity to a panel of chemotherapeutic drugs commonly used to treat breast cancer. […] To confirm that in vivo exposure to IL-4 is responsible for high Bcl-XL expression and resistance to chemotherapy in breast cancer, Bcl-XL expression and sensitivity to apoptosis of primary breast carcinoma cells cultivated in the presence or absence of IL-4 was measured Freshly isolated breast cancer cells expressed high levels of Bcl-XL and were scarcely sensitive to chemotherapeutic drugs (FIGS. 14C and D). […] Thus, in vivo IL-4 production promotes the survival of breast cancer cells. […]
Cell pellets were washed twice with cold PBS and lysed on ice for 30 minutes with 1% NP40 lysis buffer (20 mM Tris-HCl pH 7.2, 200 mM NaCl, 1% NP40) in the presence of 1 mM phenylmethylsulphonyl fluoride (PMSF) and 2 μg/ml each of aprotinin, leupeptin and pepstatin. […] Lysate concentration was determined using the Bio-Rad protein assay (Bio-Rad Laboratories, Richmond, Calif.). […]

B1: IL-4: human recombinant IL-4 (protein, UniProt P05112 25-153, looked up)
Interleukin-4: HKCDITLQEIIKTLNSLTEQKTLCTELTVTDIFAASKNTTEKETFCRAATVLRQFYSHHEKDTRCLGATAQQFHRHKQLIRFLKRLDRNLWGLAGLNSCPVKEANQSTLENFLERLKTIMREKYSKCSS
Bcl-xL and Bcl-2 expression in normal thyrocytes [1]: upregulated
apoptosis of normal breast epithelial cells induced by cisplatin, doxorubicin and taxol ([2]; IL-4 pretreatment): significantly protected
Bcl-XL expression in normal breast epithelial cells ([2]; IL-4 treatment): considerably increased the expression of Bcl-XL
